In US9958461B2, “Detection of protein to protein interactions” (THE GOVERNING COUNCIL OF THE UNIVERSITY OF TORONTO, priority 2013, dated 2018):

How the values were obtained:
EGFR-Wt [1] = target: T1, EGFR-Wt (Homo sapiens, UniProt P00533); assay: MaMTH EGFR-interactor screen, lentiviral preys against EGFR-wildtype bait (interaction score); format: cell-based; settings: MaMTH interaction score of prey with EGFR-Wt bait, mean
T1 construct: with the advantage of testing full-length integral membrane proteins; (GGGGS)2 linker-Cub (human ubiquitin aa 35-76)-GAL4(1-147)-mNFkB(364-550) (C); expressed in transfected cells
Description: (§1) After lentivirus harvest, target cells (stable 5×GAL4UAS-luciferase reporter-HEK293T cells) were infected at a multiplicity of infection (MOI) of around 0.3-0.4 to ensure single copy integration per cell. Cells were selected in puromycin for at least 48 h and transfected with either EGFR-wildtype or EGFR-L858R baits in triplicates. 24 h after transfection, cells were lysed and luciferase assays performed. On each set of interaction assays, various negative controls were included. To calculate a MaMTH-interaction scores, negative controls were averaged and the fold-change of luciferase activity compared to the averaged controls was calculated and defined as the interaction score.
(§2) Each set of experiments contains a defined set of negative controls in at least three replicates. Negative controls were chosen as such that there is a range of controls showing high-background luciferase activity (normally cytosolic proteins: Fabp5, Pex19) as well as medium-background luciferase activity (membrane-bound interactors: Pex7, GABBR2). Negative controls were averaged and the fold-change of luciferase activity was calculated. Using this method, we have a stringent cut-off and chose an interaction score >1 to be interacting proteins.
(§3) Our cut-off of 1 is based on fold-change difference in luciferase activity over averaged negative controls. Negative controls include cytosolic preys (which tend to promiscuously bind to many proteins), plasma membrane- and peroxisomal-prey proteins. In general, we chose stringent conditions by testing preys that tend to have high luciferase background with any bait tested, in order to generate high-confidence interaction data. […] Phosphorylated tyrosine residues on the receptor are typically docking sites for downstream cytoplasmic targets and recognized through SH2 or PTB domains^43.

EGFR-Wt [2] = assay: as above; format: cell-based, human; settings: ratio of EGFR-Wt mean to EGFR-L858R mean interaction score
Description: as §1, §2, §3

EGFR-L858R = target: T2, EGFR-L858R (Homo sapiens, UniProt P00533, L858R); assay: MaMTH EGFR-interactor screen, lentiviral preys against EGFR-L858R bait (interaction score); format: cell-based; settings: MaMTH interaction score of prey with EGFR-L858R bait
T2 construct: with the advantage of testing full-length integral membrane proteins; (GGGGS)2 linker-Cub (human ubiquitin aa 35-76)-GAL4(1-147)-mNFkB(364-550) (C); expressed in transfected cells
Description: as §1, §2, §3

Molecule | EGFR-Wt mean (EGFR-Wt [1]) | Wt/L858R (EGFR-Wt [2]) | EGFR-L858R mean (EGFR-L858R)
STAT5A (protein, UniProt P42229 1-794, looked up) Signal transducer and …: MAGWIQAQQLQGDALRQMQVLYGQHFPIEVRHYLAQWIESQPWDAIDLDNPQDRAQATQLLEGLVQELQKKAEHQVGEDGFLLKIKLGHYATQLQKTYDRCPLELVRCIRHILYNEQRLVREANNCSSPAGILVDAMSQKHLQINQTFEELRLVTQDTENELKKLQQTQEYFIIQYQESLRIQAQFAQLAQLSPQERLSRETALQQKQVSLEAWLQREAQTLQQYRVELAEKHQKTLQLLRKQQTIILDDELIQWKRRQQLAGNGGPPEGSLDVLQSWCEKLAEIIWQNRQQIRRAEHLCQQLPIPGPVEEMLAEVNATITDIISALVTSTFIIEKQPPQVLKTQTKFAATVRLLVGGKLNVHMNPPQVKATIISEQQAKSLLKNENTRNECSGEILNNCCVMEYHQATGTLSAHFRNMSLKRIKRADRRGAESVTEEKFTVLFESQFSVGSNELVFQVKTLSLPVVVIVHGSQDHNATATVLWDNAFAEPGRVPFAVPDKVLWPQLCEALNMKFKAEVQSNRGLTKENLVFLAQKLFNNSSSHLEDYSGLSVSWSQFNRENLPGWNYTFWQWFDGVMEVLKKHHKPHWNDGAILGFVNKQQAHDLLINKPDGTFLLRFSDSEIGGITIAWKFDSPERNLWNLKPFTTRDFSIRSLADRLGDLSYLIYVFPDRPKDEVFSKYYTPVLAKAVDGYVKPQIKQVVPEFVNASADAGGSSATYMDQAPSPAVCPQAPYNMYPQNPDHVLDQDGEFDLDETMDVARHVEELLRRPMDSLDSRLSPPAGLFTSARGSLS | 3.12 | 0.96 | 3.26
TAB1 (protein, UniProt Q15750 1-504, looked up) TGF-beta-activated kinase 1 …: MAAQRRSLLQSEQQPSWTDDLPLCHLSGVGSASNRSYSADGKGTESHPPEDSWLKFRSENNCFLYGVFNGYDGNRVTNFVAQRLSAELLLGQLNAEHAEADVRRVLLQAFDVVERSFLESIDDALAEKASLQSQLPEGVPQHQLPPQYQKILERLKTLEREISGGAMAVVAVLLNNKLYVANVGTNRALLCKSTVDGLQVTQLNVDHTTENEDELFRLSQLGLDAGKIKQVGIICGQESTRRIGDYKVKYGYTDIDLLSAAKSKPIIAEPEIHGAQPLDGVTGFLVLMSEGLYKALEAAHGPGQANQEIAAMIDTEFAKQTSLDAVAQAVVDRVKRIHSDTFASGGERARFCPRHEDMTLLVRNFGYPLGEMSQPTPSPAPAAGGRVYPVSVPYSSAQSTSKTSVTLSLVMPSQGQMVNGAHSASTLDEATPTLTNQSPTLTLQSTNTHTQSSSSSSDGGLFRSRPAHSLPPGEDGRVEPYVDFAEFYRLWSVDHGEQSVVTAP | 5.84 | 0.98 | 5.95
Cdh1 (protein, UniProt P12830 155-882, looked up) Cadherin-1: DWVIPPISCPENEKGPFPKNLVQIKSNKDKEGKVFYSITGQGADTPPVGVFIIERETGWLKVTEPLDRERIATYTLFSHAVSSNGNAVEDPMEILITVTDQNDNKPEFTQEVFKGSVMEGALPGTSVMEVTATDADDDVNTYNAAIAYTILSQDPELPDKNMFTINRNTGVISVVTTGLDRESFPTYTLVVQAADLQGEGLSTTATAVITVTDTNDNPPIFNPTTYKGQVPENEANVVITTLKVTDADAPNTPAWEAVYTILNDDGGQFVVTTNPVNNDGILKTAKGLDFEAKQQYILHVAVTNVVPFEVSLTTSTATVTVDVLDVNEAPIFVPPEKRVEVSEDFGVGQEITSYTAQEPDTFMEQKITYRIWRDTANWLEINPDTGAISTRAELDREDFEHVKNSTYTALIIATDNGSPVATGTGTLLLILSDVNDNAPIPEPRTIFFCERNPKPQVINIIDADLPPNTSPFTAELTHGASANWTIQYNDPTQESIILKPKMALEVGDYKINLKLMDNQNKDQVTTLEVSVCDCEGAAGVCRKAQPVEAGLQIPAILGILGGILALLILILLLLLFLRRRAVVKEPLLPPEDDTRDNVYYYDEEGGGEEDQDFDLSQLHRGLDARPEVTRNDVAPTLMSVPRYLPRPANPDEIGNFIDENLKAADTDPTAPPYDSLLVFDYEGSGSEAASLSSLNSSESDKDQDYDYLNEWGNRFKKLADMYGGGEDD | 2.14 | 0.94 | 2.27
